Data from paper doi:10.1101/197558 (bioRxiv, 2017).
Changes are numbered by the printed parent chain. In names and notes the source's numbering stands. Read-outs that look alike come from different tables or passages of the source.

T1: full-length C. elegans MEI-1 (C. elegans, UniProt P34808 1-472)
T1 sequence (looked up): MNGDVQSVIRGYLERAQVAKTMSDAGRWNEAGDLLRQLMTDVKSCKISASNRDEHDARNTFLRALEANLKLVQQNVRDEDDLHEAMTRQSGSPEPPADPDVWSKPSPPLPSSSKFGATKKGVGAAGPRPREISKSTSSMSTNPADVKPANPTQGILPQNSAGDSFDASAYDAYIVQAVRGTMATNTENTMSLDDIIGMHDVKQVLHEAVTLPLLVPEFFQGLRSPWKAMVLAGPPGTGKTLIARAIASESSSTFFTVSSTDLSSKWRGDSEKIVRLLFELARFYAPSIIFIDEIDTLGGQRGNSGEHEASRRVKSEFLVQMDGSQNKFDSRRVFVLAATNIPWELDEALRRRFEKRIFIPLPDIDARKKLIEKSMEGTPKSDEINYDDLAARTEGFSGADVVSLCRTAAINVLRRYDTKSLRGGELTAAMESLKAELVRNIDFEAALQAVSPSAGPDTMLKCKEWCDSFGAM

B1: wild-type KATNAL1/B1-con80 complex (full length human KATNAL1 with the con80 domain, residues 411-655, of human KATNB1) (complex)
chain 1: MNLAEICDNAKKGREYALLGNYDSSMVYYQGVMQQIQRHCQSVRDPAIKGKWQQVRQELLEEYEQVKSIVSTLESFKIDKPPDFPVSCQDEPFRDPAVWPPPVPAEHRAPPQIRRPNREVRPLRKEMAGVGARGPVGRAHPISKSEKPSTSRDKDYRARGRDDKGRKNMQDGASDGEMPKFDGAGYDKDLVEALERDIVSRNPSIHWDDIADLEEAKKLLREAVVLPMWMPDFFKGIRRPWKGVLMVGPPGTGKTMLAKAVATECGTTFFNVSSSTLTSKYRGESEKLVRLLFEMARFYAPTTIFIDEIDSICSRRGTSDEHEASRRVKSELLIQMDGVGGALENDDPSKMVMVLAATNFPWDIDEALRRRLEKRIYIPLPTAKGRAELLKINLREVELDPDIQLEDIAEKIEGYSGADITNVCRDASLMAMRRRINGLSPEEIRALSKEELQMPVTKGDFELALKKIAKSVSAADLEKYEKWMVEFGSA
chain 2: AATAKEAAKPSPAMDVQFPVPNLEVLPRPPVVASTPAPKAEPAIIPATRNEPIGLKASDFLPAVKIPQQAELVDEDAMSQIRKGHDTMCVVLTSRHKNLDTVRAVWTMGDIKTSVDSAVAINDLSVVVDLLNIVNQKASLWKLDLCTTVLPQIEKLLQSKYESYVQTGCTSLKLILQRFLPLITDMLAAPPSVGVDISREERLHKCRLCYKQLKSISGLVKSKSGLSGRHGSTFRELHLLMASLD
B2: KATNAL1 (E308Q)/B1-con80 complex (complex, human)
chain 1: B1 chain 1 with E308Q
chain 2: B1 chain 2
B3: full length human KATNAL1 (E308Q) (enzyme, UniProt Q9BW62 1-490, looked up)
chain: B1 chain 1 with E308Q
B4: con80 domain (residues 411-655) of human KATNB1 (domain or fragment, UniProt Q9BVA0 411-655, looked up)
chain: B1 chain 2
B5: full-length C. elegans MEI-2 (natural protein, UniProt O44740 1-280, looked up)
chain: MSGLDDRKKLTHAKNRKPLNDIPKSAENRPNTRSTSSRRGAEKDVPITFIGSSRTVKADLPEFTNTRSRRPLHSESKKELSRNPVSRGEEHSSSLPKSSPESSVSVMSSNASLWSACTEEVNKIGVCAKRESRNLRVYKMKSFTSNMEQILSNDNQLAPTVIRILNSRNSWCLNSCHACLTFIMENITSDNYGKRSACLKALASITNSLLDTIIGFASTKTRRIGVDVVAEERAAKATECIHNFRKIVKNRDKIYKQIDQETIYKLDAILERLKKVSSHK
B6: C. elegans MEI-1/MEI-2 complex (full-length MEI-1 with full-length MEI-2) (complex)
chain 1: T1 sequence (looked up)
chain 2: B5 chain

Assays:
Test in all cases: SEC-MALS
SEC-MALS [1] = molecular target: the molecule itself
SEC-MALS [2] = molecular target: the molecule itself; remark: listed apart in the source
[3] = molecular target: full length human KATNAL1 (human, UniProt Q9BW62 1-490)
[4] = molecular target: B3
[5] = molecular target: T1, full-length C. elegans MEI-1

Binder	stoichiometry N (SEC-MALS [1])	stoichiometry N (SEC-MALS [2])	other results
B1	2		
B2	6	2	
B3	6		
B4			binding result [3]: binds; binding result [4]: binds
B5			binding result [5]: binds
B6		2	
